Test results reported in patent US20120064075.

Biological target: type IV collagen

B1: murine chimera FIXGla-Egf1FVIIa (protein)
chain: MKHLNTVMAESPALITIFLLGYLLSTECAVFLDRENATKILTRPKRYNSGKLEEFVRGNLERECIEERCSFEEAREVFENTEKTTEFWKQYVDGDQCESNPCLNGGICKDDISSYECWCQVGFEGRNCEFSKNEQLICANENGDCDQYCRDHVGTKRTCSCHEDYTLQPDEVSCKPKVEYPCGRIPVVEKRNSSSRQGRRKRRKRIVGGNVCPKGECPWQAVLKINGLLLCGAVLLDARWIVTAAHCFDNIRYWGNITVVMGEHDFSEKDGDEQVRRVTQVIMPDKYIRGKINHDIALLRLHRPVTFTDYVVPLCLPEKSFSENTLARIRFSRVSGWGQLLDRGATALELMSIEVPRLMTQDCLEHAKHSSNTPKITENMFCAGYMDGTKDACKGDSGGPHATHYHGTWYLTGVVSWGEGCAAIGHIGVYTRVSQYIDWLVRHMDSKLQVGVFRLPLL
ELISA measurements of expressed chimera in blood 10 minutes after a bolus of FIX: a 4-fold increase in the chimeric protein was measured
